In patent US20160130552A1 one finds decrease in long-duration monocyte-platelet interactions under flow data, which are given here for 1 molecule.

The test deals with RGD-recognizing receptors of monocytes. The experiment in a line: cell-based or functional assay.

RGDS [Small RGD peptides containing the amino-acid sequence Arg-Gly-Asp-Ser] yielded a decrease in long-duration monocyte-platelet interactions under flow of 44%.
